Test results published in patent US20120308571A1 (FUJIFILM RI PHARMA, published 2012).

B1: human chimera-type NZ-1 antibody (antibody)
heavy: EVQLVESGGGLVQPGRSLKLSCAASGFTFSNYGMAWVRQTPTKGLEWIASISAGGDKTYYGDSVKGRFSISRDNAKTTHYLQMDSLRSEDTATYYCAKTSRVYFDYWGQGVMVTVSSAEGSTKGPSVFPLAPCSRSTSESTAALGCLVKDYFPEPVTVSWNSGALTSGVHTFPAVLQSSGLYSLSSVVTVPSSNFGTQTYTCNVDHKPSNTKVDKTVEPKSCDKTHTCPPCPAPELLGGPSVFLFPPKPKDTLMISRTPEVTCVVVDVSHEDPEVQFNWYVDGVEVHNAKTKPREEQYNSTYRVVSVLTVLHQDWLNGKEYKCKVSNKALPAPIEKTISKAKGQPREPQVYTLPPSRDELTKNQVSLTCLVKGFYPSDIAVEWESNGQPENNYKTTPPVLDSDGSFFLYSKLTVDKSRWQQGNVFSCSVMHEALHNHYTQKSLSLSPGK
light: QFVLTQPNSVSTNLGSTVKLSCKRSTGNIGSNYVNWYQQHEGRSPTTMIYRDDKRPDGVPDRFSGSIDRSSNSALLTINNVQTEDEADYFCHSYSSGIVFGGGTKLTVLGQPKGIRTVAAPSVFIFPPSDEQLKSGTASVVCLLNNFYPREAKVQWKVDNALQSGNSQESVTEQDSKDSTYSLSSTLTLSKADYEKHKVYACEVTHQGLSSPVTKSFNRGEC
notes: Heavy chain is the VH of rat NZ-1 joined to the CH1, hinge, CH2 and CH3 of human IgG1; also called human chimeric antibody; human chimera-type antibody
B2: rat NZ-1 antibody (antibody)
heavy: EVQLVESGGGLVQPGRSLKLSCAASGFTFSNYGMAWVRQTPTKGLEWIASISAGGDKTYYGDSVKGRFSISRDNAKTTHYLQMDSLRSEDTATYYCAKTSRVYFDYWGQGVMVTVSSAETTAPSVYPLAPGTALKSNSMVTLGCLVKGYFPEPVTVTWNSGALSSGVHTFPAVLQSGLYTLTSSVTVPSSTWSSQAVTCNVAHPASSTKVDKKIVPRECNPCGCTGSEVSSVFIFPPKTKDVLTITLTPKVTCVVVDISQNDPEVRFSWFIDDVEVHTAQTHAPEKQSNSTLRSVSELPIVHRDWLNGKTFKCKVNSGAFPAPIEKSISKPEGTPRGPQVYTMAPPKEEMTQSQVSITCMVKGFYPPDIYTEWKMNGQPQENYKNTPPTMDTDGSYFLYSKLNVKKETWQQGNTFTCSVLHEGLHNHHTEKSLSHSPGK
light: QFVLTQPNSVSTNLGSTVKLSCKRSTGNIGSNYVNWYQQHEGRSPTTMIYRDDKRPDGVPDRFSGSIDRSSNSALLTINNVQTEDEADYFCHSYSSGIVFGGGTKLTVLGQPKSTPTLTVFPPSTEELQGNKATLVCLISDFYPSDVEVAWKANGAPISQGVDTANPTKQGNKYIASSFLRLTAEQWRSRNSFTCQVTHEGNTVEKSLSPAECV
notes: Rat monoclonal antibody from the NZ-1 hybridoma; also called rat monoclonal antibody NZ-1
B3: mouse chimera-type NZ-1 antibody (antibody)
heavy: EVQLVESGGGLVQPGRSLKLSCAASGFTFSNYGMAWVRQTPTKGLEWIASISAGGDKTYYGDSVKGRFSISRDNAKTTHYLQMDSLRSEDTATYYCAKTSRVYFDYWGQGVMVTVSSAETTAPSVYPLAPGTALKSNSMVTLGCLVKGYFPEPVTVTWNSGALSSGVHTFPAVLQSGLYTLTSSVTVPSSTWSSQAVTCNVAHPASSTKVDKKIVPRRSPPLKECPPCAAPDLLGGPSVFIFPPKIKDVLMISLSPMVTCVVVDVSEDDPDVQISWFVNNVEVHTAQTQTHREDYNSTLRVVSALPIQHQDWMSGKEFKCKVNNRALPSPIEKTISKPRGPVRAPQVYVLPPPAEEMTKKEFSLTCMITGFLPAEIAVDWTSNGRTEQNYKNTATVLDSDGSYFMYSKLRVQKSTWERGSLFACSVVHEGLHNHLTTKTISRSLGK
light: B2 light
notes: Heavy chain is the VH and CH1 of rat NZ-1 joined to the hinge, CH2 and CH3 of mouse IgG2a; Light chain is the rat NZ-1 L chain; also called mouse chimeric antibody; mouse chimera-type antibody

Key:
human podoplanin [1] = target: T1, human podoplanin (human, UniProt Q86YL7 23-162); experiment: flow cytometry on H226 and LN319 cells, 10 ug/ml antibody
T1 construct: whole, on cells; also called Aggrus
T1 sequence (looked up): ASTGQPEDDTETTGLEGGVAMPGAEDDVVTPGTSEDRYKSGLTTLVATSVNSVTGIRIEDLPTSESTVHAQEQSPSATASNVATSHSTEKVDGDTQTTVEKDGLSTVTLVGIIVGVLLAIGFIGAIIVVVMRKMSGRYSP
Description: First, NZ-1 antibodies, mouse chimera-type NZ-1 antibodies, and human chimera-type NZ-1 antibodies (10 μg/ml) were reacted at 4° C. for 30 minutes with human malignant mesothelioma cells (H226) and human glioma cells (LN319) which expressed human podoplanin. In addition, anti-rat IgG-FITC antibodies, anti-mouse IgG-FITC antibodies, and anti-human IgG-FITC antibodies were respectively reacted at 4° C. for 30 minutes. The fluorescence intensity was measured by FACSCalibur (BD).

human podoplanin [2] = target: T1, human podoplanin; experiment: flow cytometry on H2052 mesothelioma cells, 10 ug/ml antibody
Description: Meanwhile, the expression of podoplanin in the mesothelioma cells was confirmed by flow cytometry. Specifically, the cells were reacted with NZ-1 antibodies (10 μg/ml) at 4° C. for 30 minutes, and further reacted with anti-rat IgG-FITC antibodies at 4° C. for 30 minutes. Fluorescence intensity was measured by FACSCalibur (BD).

| Binder | binding result (human podoplanin [1]) | binding result (human podoplanin [2]) |
| --- | --- | --- |
| B1 | binds |  |
| B2 |  | binds |
| B3 | binds |  |
